# Source: PMC3115021, “Dynamics of Cdk1 Substrate Specificity during the Cell Cycle” (Molecular Cell, 2011)
# Key:
# Assay in all cases: Quantitative phosphorylation assay of T33-Sic1ΔC constructs and recombinant substrates
# Assay type in all cases: biochemical
# Conditions in all cases: Table S2; purified protein substrate; relative values, not divided by [S]
# Clb2-Cdk1 = molecular target: T1, Clb2-Cdk1 (Saccharomyces cerevisiae, UniProt P00546+P24869)
# T1 construct: We purified the four cyclin-Cdk1 complexes from yeast; made in house; host or cells: S. cerevisiae strain DOM0077 (gal-CLB2-TAP, sic1 deleted); Cks1 from bacteria
# Description: (§1) For the quantitative phosphorylation assays of T33-Sic1ΔC constructs and recombinant substrates, substrate concentrations were kept in the range of 0.5–2 μM (in the linear [S] versus v0 range, several-fold below the estimated KM value), and initial velocity conditions were defined as an initial substrate turnover of up to 10% of the total turnover. For the steady-state peptide kinetics of the Histone peptide PKTPKKAKKL, a similar assay composition was used as for protein substrates, and phosphocellulose paper was used for the quantification of the phosphorylated substrate. […]
# (§2) similar substrate specificity as the Cln2-Cdk1 version purified using a TAP-tag. N-terminally 6His-tagged recombinant T33-Sic1ΔC constructs and substrates were cloned into the pET28a vector and purified by standard cobalt affinity chromatography and elution with 200 mM imidazole. 6His-Fin1 was purified as described previously (Woodbury and Morgan, 2007). Substrates cloned into the pGEX-4T-1 were purified on glutathione agarose columns using 5 mM reduced glutathione for elution. Cks1 was purified as described previously (Reynard et al., 2000). The optimal working concentration for purified Cks1 was taken as 500 nM based on optimization performed for cyclin-Cdk1 preparations and T33-Sic1ΔC as a substrate.
# (§3) For the quantitative phosphorylation assays of T33-Sic1ΔC constructs and recombinant substrates, substrate concentrations were kept in the range of 0.5-2 μM (in the linear [S] vs v0 range, several-fold below the estimated KM value), and the initial velocity conditions were defined as an initial substrate turnover ranging up to 10% of the total turnover. The latter was estimated by a long-term incubation with excess amounts of cyclin-Cdk1 and 32P-γ-ATP in the standard reaction mixture given below. About 1-10 nM of purified kinase complex was used, reaction aliquots were taken at two or more time points, and the reaction was stopped by SDS-PAGE sample buffer. The relative kcat/KM values for the substrates were calculated as the ratio of v0/[S], which was determined from at least two independent experiments. The basal composition of the assay mixture contained 50 mM Hepes, pH 7.4, 100 mM NaCl, 0.1% NP-40, 20 mM imidazole, 0.1 mg/ml 2HA peptide, 2% glycerol, 2 mM EGTA, 0.2 mg/ml BSA, […], and 500 μM ATP (with added 32P-γ-ATP (Perkin Elmer)).
# (§4) About 1-10 nM of purified kinase complex was used, reaction aliquots were taken at two or more time points, and the reaction was stopped by SDS-PAGE sample buffer. For the steady-state peptide kinetics of the Histone peptide PKTPKKAKKL, a similar assay composition was used as for protein substrates and the standard phosphocellulose method was applied for the quantification of the phosphorylated substrate (Loog and Morgan, 2005). Synthetic peptides as competitor agents were used in 4 mM final concentrations. […]
# Clb3-Cdk1 = molecular target: T2, Clb3-Cdk1 (Saccharomyces cerevisiae, UniProt P00546+P24870)
# T2 construct: We purified the four cyclin-Cdk1 complexes from yeast; made in house; host or cells: S. cerevisiae strain DOM0957 (gal-CLB3-TAP, sic1 deleted); Cks1 from bacteria
# Description: as §1, §2, §3, §4
# Clb5-Cdk1 = molecular target: T3, Clb5-Cdk1 (Saccharomyces cerevisiae, UniProt P00546+P30283)
# T3 construct: We purified the four cyclin-Cdk1 complexes from yeast; made in house; host or cells: S. cerevisiae strain DOM0076 (gal-CLB5-TAP, sic1 deleted); Cks1 from bacteria
# Description: as §1, §2, §3, §4
# Cln2-Cdk1 = molecular target: T4, Cln2-Cdk1 (Saccharomyces cerevisiae, UniProt P00546+P20438)
# T4 construct: We purified the four cyclin-Cdk1 complexes from yeast; made in house; host or cells: S. cerevisiae strain DMY305 (galactose-induced); Cks1 from bacteria
# Description: as §1, §2, §3, §4
# Clb2hpm-Cdk1 = molecular target: T5, Clb2hpm-Cdk1 (Saccharomyces cerevisiae, UniProt P00546)
# T5 construct: made in house; host or cells: S. cerevisiae strain DOM0964 (gal-CLB2hpm-TAP, sic1 deleted); Cks1 from bacteria
# Description: (§5) For the quantitative phosphorylation assays of T33-Sic1ΔC constructs and recombinant substrates, substrate concentrations were kept in the range of 0.5–2 μM (in the linear [S] versus v0 range, several-fold below the estimated KM value), and initial velocity conditions were defined as an initial substrate turnover of up to 10% of the total turnover. For the steady-state peptide kinetics of the Histone peptide PKTPKKAKKL, a similar assay composition was used as for protein substrates, and phosphocellulose paper was used for the quantification of the phosphorylated substrate.
# (§6) Supplemental Experimental Procedures
# (§7) Plasmid constructs and yeast strains
# (§8) For tandem affinity purification (TAP) of cyclin-Cdk1 complexes, the cyclin genes were cloned into the 2 micron vector pRSAB1234 containing a GAL1 promoter and the C-terminal TAP-tag. To purify different 6His-T33-Sic1ΔC forms for kinase assays, the C-terminally truncated fragment of Sic1 (with a stop codon inserted after amino acid 215) was cloned into the NheI/BamHI site of the bacterial expression vector pET28a (Invitrogen). Mutagenesis of cyclins or substrates was performed using single-stranded pRSAB1234 or pET28a vector constructs as templates. The triple mutants in the hydrophobic patch (hpm) of Clb5 and Clb2 were described previously (Loog and Morgan, 2005), and the hpm of Clb3 (Phe-201, Leu-205 and Trp-208 mutated to alanines) was designed according to sequence homology with other B-type cyclins. In T33-Sic1ΔC constructs, the other Cdk sites bearing the consensus motif S/T-P were mutated to Ala-Ala in order to prevent any possible (pseudo)substrate competition. The other Cdk substrates were cloned as full-length forms into bacterial expression vectors pET28a or pGEX-4T-1. Cdh1 was purified using the baculovirus system and was a kind gift from Monica Rodrigo-Brenni (UCSF). […]
# The […]
# (§9) pRSAB1234 analogously to the cyclin-Cdk1 complexes. For C-terminal tagging of cyclin genes in their chromosomal loci, the Pringle method was applied (Longtine et al., 1998). Lists of plasmid […]
# (§10) The TAP method was applied for purification of cyclin-Cdk1 complexes and Swe1 as described previously for Clb5-TAP-Cdk1 and Clb2-TAP-Cdk1 (Puig et al., 2001; Ubersax et al., 2003). […]
# as §2, with “tagged” for “similar substrate specificity as the Cln2-Cdk1 version purified using a TAP-tag. N-terminally 6His-tagged”
# as §3
# (§11) About 1-10 nM of purified kinase complex was used, reaction aliquots were taken at two or more […]
# Clb3hpm-Cdk1 = molecular target: T6, Clb3hpm-Cdk1 (Saccharomyces cerevisiae, UniProt P00546+P24870)
# T6 construct: made in house; host or cells: S. cerevisiae strain MK0168 (gal-CLB3hpm-TAP, sic1 deleted); Cks1 from bacteria
# Description: as §5, §6, §7, §8
# The […]
# as §9, §10
# as §2, with “tagged” for “similar substrate specificity as the Cln2-Cdk1 version purified using a TAP-tag. N-terminally 6His-tagged”
# as §3, §11
# Clb5hpm-Cdk1 = molecular target: T7, Clb5hpm-Cdk1 (Saccharomyces cerevisiae, UniProt P00546)
# T7 construct: made in house; host or cells: S. cerevisiae strain DOM0963 (gal-CLB5hpm-TAP, sic1 deleted); Cks1 from bacteria
# Description: as §5, §6, §7, §8
# The […]
# as §9, §10
# as §2, with “tagged” for “similar substrate specificity as the Cln2-Cdk1 version purified using a TAP-tag. N-terminally 6His-tagged”
# as §3, §11
# T5 sequence (P00546 2-298 limits assumed): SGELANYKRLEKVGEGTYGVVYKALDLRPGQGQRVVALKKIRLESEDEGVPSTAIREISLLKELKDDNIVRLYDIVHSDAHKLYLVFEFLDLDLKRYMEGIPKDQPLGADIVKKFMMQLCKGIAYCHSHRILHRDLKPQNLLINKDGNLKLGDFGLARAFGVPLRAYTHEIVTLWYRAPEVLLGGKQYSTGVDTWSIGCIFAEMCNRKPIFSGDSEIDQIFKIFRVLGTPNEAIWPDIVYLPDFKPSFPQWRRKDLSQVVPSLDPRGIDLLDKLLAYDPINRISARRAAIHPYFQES
# T1 sequence (P00546 2-298 limits assumed): as above
# T1 sequence (P24869 2-491 partner limits assumed): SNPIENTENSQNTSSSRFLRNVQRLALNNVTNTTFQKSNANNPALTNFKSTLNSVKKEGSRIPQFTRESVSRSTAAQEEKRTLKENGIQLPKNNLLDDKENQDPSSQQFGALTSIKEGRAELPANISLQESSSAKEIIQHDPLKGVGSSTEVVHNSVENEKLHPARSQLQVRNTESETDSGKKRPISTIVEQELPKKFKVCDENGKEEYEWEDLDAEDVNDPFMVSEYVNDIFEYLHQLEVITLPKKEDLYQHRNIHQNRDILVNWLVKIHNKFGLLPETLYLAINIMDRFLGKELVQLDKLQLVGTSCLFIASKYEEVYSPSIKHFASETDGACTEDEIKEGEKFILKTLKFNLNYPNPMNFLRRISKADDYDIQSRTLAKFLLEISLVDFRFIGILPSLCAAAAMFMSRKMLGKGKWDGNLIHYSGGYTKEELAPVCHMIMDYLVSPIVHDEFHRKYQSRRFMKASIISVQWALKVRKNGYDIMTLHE
# T1 sequence (P20486 whole entry partner): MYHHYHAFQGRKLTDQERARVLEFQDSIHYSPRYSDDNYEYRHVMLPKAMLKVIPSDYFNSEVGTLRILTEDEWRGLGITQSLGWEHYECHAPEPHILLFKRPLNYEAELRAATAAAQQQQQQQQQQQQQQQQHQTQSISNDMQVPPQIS
# T2 sequence (P00546 2-298 limits assumed): as the sequence (P00546 2-298 limits assumed) above
# T2 sequence (P24870 whole entry partner): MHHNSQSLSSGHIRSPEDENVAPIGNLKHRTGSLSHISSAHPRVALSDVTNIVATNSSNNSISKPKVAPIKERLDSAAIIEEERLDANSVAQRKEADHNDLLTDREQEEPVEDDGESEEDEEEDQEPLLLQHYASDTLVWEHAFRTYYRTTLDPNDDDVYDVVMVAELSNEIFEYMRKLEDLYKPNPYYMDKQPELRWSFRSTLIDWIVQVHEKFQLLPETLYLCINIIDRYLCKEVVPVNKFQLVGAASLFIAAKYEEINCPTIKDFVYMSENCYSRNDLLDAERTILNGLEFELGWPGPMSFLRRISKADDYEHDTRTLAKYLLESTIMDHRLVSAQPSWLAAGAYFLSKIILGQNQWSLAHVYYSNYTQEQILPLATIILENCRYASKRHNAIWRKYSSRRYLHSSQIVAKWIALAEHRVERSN
# T2 sequence (P20486 whole entry partner): as the sequence (P20486 whole entry partner) above
# T7 sequence (P00546 2-298 limits assumed): as the sequence (P00546 2-298 limits assumed) above
# T3 sequence (P00546 2-298 limits assumed): as above
# T3 sequence (P30283 whole entry partner): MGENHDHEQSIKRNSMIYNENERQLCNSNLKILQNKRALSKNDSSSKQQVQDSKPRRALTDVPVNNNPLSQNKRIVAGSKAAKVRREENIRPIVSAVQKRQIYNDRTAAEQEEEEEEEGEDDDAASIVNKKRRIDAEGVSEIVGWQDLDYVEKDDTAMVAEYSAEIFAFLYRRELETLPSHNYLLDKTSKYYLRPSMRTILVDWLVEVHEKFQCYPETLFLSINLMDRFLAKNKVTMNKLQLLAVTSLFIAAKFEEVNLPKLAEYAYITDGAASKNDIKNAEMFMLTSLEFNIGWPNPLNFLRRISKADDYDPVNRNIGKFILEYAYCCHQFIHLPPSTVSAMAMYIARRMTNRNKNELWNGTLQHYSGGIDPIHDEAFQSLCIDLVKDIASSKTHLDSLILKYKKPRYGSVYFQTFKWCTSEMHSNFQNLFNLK
# T3 sequence (P20486 whole entry partner): as the sequence (P20486 whole entry partner) above
# T4 sequence (P00546 2-298 limits assumed): as the sequence (P00546 2-298 limits assumed) above
# T4 sequence (P20438 whole entry partner): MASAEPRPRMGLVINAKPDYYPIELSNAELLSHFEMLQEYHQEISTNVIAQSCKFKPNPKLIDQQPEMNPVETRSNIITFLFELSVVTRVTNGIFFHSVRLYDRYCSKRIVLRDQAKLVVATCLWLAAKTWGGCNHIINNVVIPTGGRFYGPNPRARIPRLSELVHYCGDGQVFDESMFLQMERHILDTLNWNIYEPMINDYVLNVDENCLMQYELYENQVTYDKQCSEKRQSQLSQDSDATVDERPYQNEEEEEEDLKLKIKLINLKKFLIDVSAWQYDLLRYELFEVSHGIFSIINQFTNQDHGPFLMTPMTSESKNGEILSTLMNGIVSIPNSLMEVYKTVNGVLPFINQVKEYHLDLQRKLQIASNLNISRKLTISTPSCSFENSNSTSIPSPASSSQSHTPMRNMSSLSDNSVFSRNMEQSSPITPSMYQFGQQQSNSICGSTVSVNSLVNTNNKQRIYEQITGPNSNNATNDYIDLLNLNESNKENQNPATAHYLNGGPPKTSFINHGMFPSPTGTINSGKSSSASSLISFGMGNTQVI
# T4 sequence (P20486 whole entry partner): as the sequence (P20486 whole entry partner) above
Molecule,"kcat/KM, Clb2 (Clb2-Cdk1)","kcat/KM, Clb3 (Clb3-Cdk1)","kcat/KM, Clb5 (Clb5-Cdk1)","kcat/KM, Cln2 (Cln2-Cdk1)","kcat/KM, Clb2hpm (Clb2hpm-Cdk1)","kcat/KM, Clb3hpm (Clb3hpm-Cdk1)","kcat/KM, Clb5hpm (Clb5hpm-Cdk1)"
"ORC6: purified yeast protein tested as Cdk1 substrate (protein, UniProt P38826 1-435, looked up) Origin recognition complex …: MSMQQVQHCVAEVLRLDPQEKPDWSSGYLKKLTNATSILYNTSLNKVMLKQDEEVARCHICAYIASQKMNEKHMPDLCYYIDSIPLEPKKAKHLMNLFRQSLSNSSPMKQFAWTPSPKKNKRSPVKNGGRFTSSDPKELRNQLFGTPTKVRKSQNNDSFVIPELPPMQTNESPSITRRKLAFEEDEDEDEEEPGNDGLSLKSHSNKSITGTRNVDSDEYENHESDPTSEEEPLGVQESRSGRTKQNKAVGKPQSELKTAKALRKRGRIPNSLLVKKYCKMTTEEIIRLCNDFELPREVAYKIVDEYNINASRLVCPWQLVCGLVLNCTFIVFNERRRKDPRIDHFIVSKMCSLMLTSKVDDVIECVKLVKELIIGEKWFRDLQIRYDDFDGIRYDEIIFRKLGSMLQTTNILVTDDQYNIWKKRIEMDLALTEPL",0.009 relative units,0.018 relative units,0.029 relative units,0.002 relative units,0.005 relative units,0.002 relative units,0.001 relative units
"PLM2: purified yeast protein tested as Cdk1 substrate (protein, UniProt Q04383 1-521, looked up) Protein PLM2: MSHLFPPSSPVAGKPLESPQKEPGKLANTSVLTLGRKRYNYELEEYPTPDPSSSIGRQSSPVKDITSRLNETKSALSSPSKQEKVLAGPIEIELDASDPSRLAIGRKKSVCNIILPCRKNISRQHAFISYAADRNEIKLECNGTNGLSVHLPYSMQLHLVKPFPTRNFYKLVAEEPLTSQNTKQSHGKTLQKNQNFISFVLAKGETVTFPYIQGSFINFTGVTVCLSLKKVAPYPGDGNNNFDEENSTETEDELCLLTTTSDDFSWQKETPSMKFVPVEHSPRTEQISKPLLIASPALVKNSPISYRTTPQTSFVINQPSTPKKLKRKSISLKNNTIQETPLPKDKIIGTLSASTRSGGINEEESFAAVAKKTKELSSTTAIVSPAQKRLKTSLNIIPEISRSLSERGIRFDDLVHVLCNHLAFSNLQQTPLSQLQNINSNTSQLSKDELKKVLETISCIGIIVREGKDASGKPLEDEYYYDVENDDSDERKILYNSLKGRSRLRSCRKKHKQYFWKRPTK",9.072 relative units,9.051 relative units,1.724 relative units,0.428 relative units,6.351 relative units,1.144 relative units,0.428 relative units
"PDS1: GST-tagged purified yeast protein tested as Cdk1 substrate (protein, UniProt P40316 1-373, looked up, GST tag, GST-tagged purified yeast protein tested as Cdk1 substrate) Securin: MMPANEDKENNIVYTGNESSGINFPQTPAHLLKRSHSNILKPPVRLDQLKRDANSNNGNTLKYIQGGKEVSPTKRLHTHAQQQGRLPLAAKDNNRSKSFIFPETSNQSKDADLPQLQNTLSIRKNDQLRKLSQISRSRSRANHNDLLSNSRKLQKYGSVLGYNALPKMKSLVLKDLADSGKNEESSDDDEGNEDSESKLGKKLQSALLKQDSSDGENELNGGLGLFNEQGGLQQLIKNSTKNEQKTKNDKSDKTDDYDIEIAPQRQEPLPYVPEGYSPFQQDDIEKLKTFNSPYKLDLEDEDDTPDKVDLLPLEQIDEEGEKDETECITRNQEEGAALPLLSKNFKEVAAVPTMELVYSEEGLDPEELEDLVT",0.049 relative units,0.015 relative units,0.008 relative units,0.249 relative units,0.035 relative units,0.005 relative units,0.002 relative units
"ORC2: purified yeast protein tested as Cdk1 substrate (protein, UniProt P32833 1-620, looked up) Origin recognition complex …: MLNGEDFVEHNDILSSPAKSRNVTPKRVDPHGERQLRRIHSSKKNLLERISLVGNERKNTSPDPALKPKTPSKAPRKRGRPRKIQEELTDRIKKDEKDTISSKKKRKLDKDTSGNVNEESKTSNNKQVMEKTGIKEKREREKIQVATTTYEDNVTPQTDDNFVSNSPEPPEPATPSKKSLTTNHDFTSPLKQIIMNNLKEYKDSTSPGKLTLSRNFTPTPVPKNKKLYQTSETKSASSFLDTFEGYFDQRKIVRTNAKSRHTMSMAPDVTREEFSLVSNFFNENFQKRPRQKLFEIQKKMFPQYWFELTQGFSLLFYGVGSKRNFLEEFAIDYLSPKIAYSQLAYENELQQNKPVNSIPCLILNGYNPSCNYRDVFKEITDLLVPAELTRSETKYWGNHVILQIQKMIDFYKNQPLDIKLILVVHNLDGPSIRKNTFQTMLSFLSVIRQIAIVASTDHIYAPLLWDNMKAQNYNFVFHDISNFEPSTVESTFQDVMKMGKSDTSSGAEGAKYVLQSLTVNSKKMYKLLIETQMQNMGNLSANTGPKRGTQRTGVELKLFNHLCAADFIASNEIALRSMLREFIEHKMANITKNNSGMEIIWVPYTYAELEKLLKTVLNTL",0.018 relative units,0.132 relative units,0.405 relative units,0.073 relative units,0.067 relative units,0.028 relative units,0.012 relative units
